The Immune Epitope Database (IEDB)

Experiments:
HLA-B*27:03 = assay: IEDB peptide-MHC binding, purified MHC/competitive/fluorescence; filed as Kd, often an IC50 or EC50 that approximates it; ≥ and ≤ were set here for values at or beyond the usual limits of such assays
HLA-A*26:01 = assay: as above
HLA-A*69:01 [1] = assay: as above
HLA-B*51:01 = assay: as above
HLA-A*02:12 [2] = assay: IEDB peptide-MHC binding, purified MHC/direct/fluorescence; filed as Kd, often an IC50 or EC50 that approximates it; ≥ and ≤ were set here for values at or beyond the usual limits of such assays
HLA-B*44:02 = assay: as above
HLA-B*15:01 [3] = assay: as above
HLA-B*39:01 [4] = assay: as above
HLA-B*48:01 = assay: as above
HLA-B*57:01 [5] = assay: as above
HLA-A*24:03 [6] = assay: as above
HLA-A*01:01 = assay: as above
HLA-A*03:01 [7] = assay: as above
HLA-B*18:01 [8] = assay: as above
HLA-A*02:11 = assay: as above
HLA-B*27:05 = assay: as above
HLA-A*29:02 = assay: as above
HLA-A*31:01 [9] = assay: as above
HLA-A*68:02 [10] = assay: as above
HLA-A*02:01 [11] = assay: as above
HLA-B*46:01 [12] = assay: as above
HLA-A*24:03 [13] = assay: IEDB peptide-MHC binding, purified MHC/competitive/fluorescence; filed as Kd, often an IC50 or EC50 that approximates it; ≥ and ≤ were set here for values at or beyond the usual limits of such assays
HLA-A*31:01 [14] = assay: as above; details: source organism: Bacillus anthracis str. A0488
HLA-A*02:12 [15] = assay: as above; details: source organism: Yersinia mollaretii ATCC 43969
HLA-B*15:01 [16] = assay: as above
HLA-B*39:01 [17] = assay: as above
HLA-B*57:01 [18] = assay: as above
HLA-A*03:01 [19] = assay: as above
HLA-B*18:01 [20] = assay: as above
HLA-A*02:19 [21] = assay: as above; details: source organism: Yersinia mollaretii ATCC 43969
HLA-A*68:02 [22] = assay: as above; details: source organism: Yersinia mollaretii ATCC 43969
HLA-A*02:01 [23] = assay: as above
HLA-B*46:01 [24] = assay: as above
HLA-B*15:17 = assay: as above; details: source organism: Yersinia mollaretii ATCC 43969
HLA-A*02:03 [25] = assay: as above; details: source organism: Yersinia mollaretii ATCC 43969
HLA-B*40:01 = assay: IEDB peptide-MHC binding, purified MHC/direct/fluorescence; filed as Kd, often an IC50 or EC50 that approximates it; ≥ and ≤ were set here for values at or beyond the usual limits of such assays; details: source organism: Mammarenavirus lassaense
HLA-B*07:02 = assay: as above; details: source organism: Mammarenavirus lassaense
HLA-A*69:01 [26] = assay: as above; details: source organism: Mammarenavirus lassaense
HLA-B*58:01 = assay: as above; details: source organism: Mammarenavirus lassaense
HLA-A*11:01 = assay: as above; details: source organism: Mammarenavirus lassaense
HLA-A*23:01 = assay: as above
HLA-A*02:16 = assay: as above; details: source organism: Orthohantavirus andesense
HLA-A*02:19 [27] = assay: as above; details: source organism: Orthohantavirus andesense
HLA-A*02:03 [28] = assay: as above; details: source organism: Orthohantavirus andesense
[29] = source organism: Orthohantavirus puumalaense
[30] = source organism: Orthohantavirus tulaense
[31] = source organism: Isla Vista hantavirus
[32] = source organism: Yersinia mollaretii ATCC 43969
[33] = source organism: Mammarenavirus lassaense
[34] = source organism: Cryptosporidium parvum Iowa II
[35] = source organism: Vibrio vulnificus CMCP6
[36] = source organism: Orthohantavirus andesense

For SSLRYGNVL, the Kd (HLA-B*27:03; [29]) was no less than 20 µM, the Kd (HLA-A*26:01; [29]) was no less than 20 µM and the Kd (HLA-A*69:01 [1]; [29]) was no less than 20 µM. The Kd (HLA-B*51:01; [29]) was no less than 20 µM, the Kd (HLA-A*02:12 [2]; [30]) was no less than 20 µM and the Kd (HLA-B*44:02; [31]) was no less than 20 µM. It also gave a Kd (HLA-B*15:01 [3]; [31]) of no less than 20 µM, a Kd (HLA-B*39:01 [4]; [31]) of 4 µM and a Kd (HLA-B*48:01; [31]) of no less than 20 µM. The Kd (HLA-B*57:01 [5]; [31]) was no less than 20 µM, the Kd (HLA-A*24:03 [6]; [30]) was no less than 20 µM and the Kd (HLA-A*01:01; [31]) was no less than 20 µM. It also gave a Kd (HLA-A*03:01 [7]; [31]) of no less than 20 µM, a Kd (HLA-B*18:01 [8]; [31]) of no less than 20 µM and a Kd (HLA-A*02:11; [30]) of no less than 20 µM. For the same sequence, the Kd (HLA-B*27:05; [31]) was no less than 20 µM, the Kd (HLA-A*29:02; [31]) was no less than 20 µM and the Kd (HLA-A*31:01 [9]; [31]) was no less than 20 µM. It also gave a Kd (HLA-A*68:02 [10]; [30]) of no less than 20 µM, a Kd (HLA-A*02:01 [11]; [31]) of no less than 20 µM and a Kd (HLA-B*46:01 [12]; [31]) of no less than 20 µM.

With HFFESLYAR the Kd (HLA-A*24:03 [13]; source organism: Bacillus anthracis str. A0488) was 4.13 µM and the Kd (HLA-A*31:01 [14]) was 0.0016 µM.

MMWIPGWFG showed a Kd (HLA-B*27:03; [32]) of no less than 20 µM, a Kd (HLA-A*26:01; [32]) of no less than 20 µM and a Kd (HLA-A*02:12 [15]) of 0.185 µM. It also gave a Kd (HLA-B*15:01 [16]; [32]) of no less than 20 µM, a Kd (HLA-B*39:01 [17]; [32]) of no less than 20 µM and a Kd (HLA-B*57:01 [18]; [32]) of no less than 20 µM. It also gave a Kd (HLA-A*24:03 [13]; [32]) of no less than 20 µM, a Kd (HLA-A*03:01 [19]; [32]) of no less than 20 µM and a Kd (HLA-B*18:01 [20]; [32]) of no less than 20 µM. The Kd (HLA-A*02:19 [21]) was no less than 20 µM, the Kd (HLA-B*51:01; [32]) was no less than 20 µM and the Kd (HLA-A*68:02 [22]) was no less than 20 µM. For the same sequence, the Kd (HLA-A*02:01 [23]; [32]) was no less than 20 µM, the Kd (HLA-B*46:01 [24]; [32]) was no less than 20 µM and the Kd (HLA-B*15:17) was no less than 20 µM. The Kd (HLA-A*02:03 [25]) was no less than 20 µM.

With KHDEEFCDM the Kd (HLA-B*40:01) was no less than 20 µM, the Kd (HLA-B*07:02) was no less than 20 µM and the Kd (HLA-B*44:02; [33]) was no less than 20 µM. For the same sequence, the Kd (HLA-B*15:01 [3]; [33]) was no less than 20 µM, the Kd (HLA-B*39:01 [4]; [33]) was no less than 20 µM and the Kd (HLA-B*48:01; [33]) was no less than 20 µM. The Kd (HLA-B*57:01 [5]; [33]) was no less than 20 µM, the Kd (HLA-A*69:01 [26]) was no less than 20 µM and the Kd (HLA-B*58:01) was no less than 20 µM. The Kd (HLA-A*01:01; [33]) was no less than 20 µM, the Kd (HLA-A*03:01 [7]; [33]) was no less than 20 µM and the Kd (HLA-B*18:01 [8]; [33]) was no less than 20 µM. The Kd (HLA-B*27:05; [33]) was no less than 20 µM, the Kd (HLA-A*29:02; [33]) was no less than 20 µM and the Kd (HLA-A*31:01 [9]; [33]) was no less than 20 µM. It also gave a Kd (HLA-A*11:01) of no less than 20 µM, a Kd (HLA-A*02:01 [11]; [33]) of no less than 20 µM and a Kd (HLA-B*46:01 [12]; [33]) of no less than 20 µM.

For GFKRGIFIF, the Kd (HLA-A*24:03 [6]; [34]) was no more than 0.001 µM and the Kd (HLA-A*23:01; [34]) was 0.002 µM.

SVYFAAFAF was tested, and the Kd (HLA-B*46:01 [24]; source organism: Vibrio vulnificus YJ016) was no less than 20 µM, the Kd (HLA-A*24:03 [6]; [35]) was 0.066 µM and the Kd (HLA-A*23:01; [35]) was 0.016 µM.

With CIIGTVSKF the Kd (HLA-A*24:03 [6]; source organism: Amur virus) was 0.049 µM and the Kd (HLA-A*23:01; source organism: Amur virus) was 0.097 µM.

In the case of STGKSIKFK, the Kd (HLA-B*27:03; [36]) is reported as no less than 20 µM, the Kd (HLA-A*26:01; [36]) is reported as no less than 20 µM and the Kd (HLA-B*15:01 [16]; [36]) is reported as no less than 20 µM. The Kd (HLA-B*39:01 [17]; [36]) was no less than 20 µM, the Kd (HLA-B*57:01 [18]; [36]) was no less than 20 µM and the Kd (HLA-A*69:01 [1]; [36]) was no less than 20 µM. It also gave a Kd (HLA-A*03:01 [19]; [36]) of 0.0147 µM, a Kd (HLA-B*18:01 [20]; [36]) of no less than 20 µM and a Kd (HLA-B*51:01; [36]) of no less than 20 µM. For the same sequence, the Kd (HLA-A*02:01 [23]; [36]) was no less than 20 µM, the Kd (HLA-B*46:01 [24]; [36]) was no less than 20 µM and the Kd (HLA-A*02:12 [2]; [36]) was no less than 20 µM. The Kd (HLA-A*02:16) was no less than 20 µM, the Kd (HLA-A*24:03 [6]; [36]) was no less than 20 µM and the Kd (HLA-A*02:11; [36]) was no less than 20 µM. It also gave a Kd (HLA-A*29:02; [36]) of no less than 20 µM, a Kd (HLA-A*02:19 [27]) of no less than 20 µM and a Kd (HLA-A*68:02 [10]; [36]) of no less than 20 µM. The Kd (HLA-A*02:03 [28]) was no less than 20 µM.
